Reference: article PMC11500612, “Differential effects of inosine monophosphate dehydrogenase (IMPDH/GuaB) inhibition in Acinetobacter baumannii and Escherichia coli” (Journal of Bacteriology, 2024)

Target: the molecule itself
Experiment: crystal structure

B1: A. baumannii GuaB with CBS domain deletion protein (M1-G488_ΔM93-R201) (enzyme)
chain: MLTIVQEALTFDDVLLLPAYSTVLPKDVSLKTRLTRGIYLNIPLVSAAMDTVTESRMAIAMAQNGGIGILHKNMDIAAQAAEVRRVKKFEAGKAESYPNSCKDDLGRLRVGAAVGTGADTPSRVEALVEAGVDVIVVDTAHGHSAGVIERVRWVKQNFPQVQVIGGNIATGDAALALLDAGADAVKVGIGPGSICTTRIVAGIGMPQISAIDSVASALKDQIPLIADGGIRFSGDMAKAIGAGASTIMVGSLLAGTEEAPGEVEFFQGRYYKAYRGMGSLGAMAGATGSADRYFQDSKAGAEKLVPEGIEGRVPYKGPMGNIVHQMMGGLRSSMGYTGSAVIEDLRQNAKFVKITSAGMSESHVHDVTITKEAPNYRVG
notes: also called A. baumannii GuaBΔCBS; GuaB^Ab; source: expressed, purified, and crystallized as described (28)
  binding result: binds
